Here are results for one molecule from paper PMC7397871.

In this series the target is T1, ZC3H12B PIN + C3H1 crystallization construct (Homo sapiens, UniProt Q5HYM0 179-380).
T1 sequence: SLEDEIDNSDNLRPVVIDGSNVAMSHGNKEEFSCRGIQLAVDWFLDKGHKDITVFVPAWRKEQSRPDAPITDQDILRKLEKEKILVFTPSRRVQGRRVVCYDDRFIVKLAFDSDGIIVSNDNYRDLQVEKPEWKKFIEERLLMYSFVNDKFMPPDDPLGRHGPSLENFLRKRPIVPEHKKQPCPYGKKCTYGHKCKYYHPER
Briefly: X-ray crystallography.

B1: 21-nt HTR-SELEX-enriched RNA (ssRNA)
RNA: AAUGCGACAGUCGGUAGCAUC
modifications: phosphorothioate between nt 1 and 2 (5' end)
Consider B1, for which the binding result is on record as “binds”.
